Measured values: PMC9565799 (2022)

B1: TcpB (minor pilin, N-terminally truncated, first 28 residues excluded) (natural protein)
chain: GGELMIKSSNAFDVIELSSQIQRYASLSKINNRTNPILKDNKAKEFKDADLKWLKLENCPTAGDVPTTGNNNDLQDQFIACDADYRKGDLSYFGSQFEFSTYVHPSNPEIQRQIKQVVSYFQYRGMERAFIGDAAGYVISEAKKKGFSAQDYRIVLIEPDRVGYFESNAISYEEFIENPSARENFLLKATKDRTLALAVSLAQTGEIAMQRDGSVAFLEDSELCWDTAAGSAKSCLSVRYDTVGNKTELDLKQIDVVSAKGLSFESDGKTKTPVVSTYETFQDGGRAKTINAIECPTGLNNRFAAVVSSFSTAGQNANFSSESAKDSQGTTQKDGSKGPHALLSGISLNWTLTNKVWDVTASIGIESGILPTSGIDSGSLLRNPKSLSFIAFQWCEN

What was measured:
Test in all cases: ITC
TcpF (1–10) peptide = TcpF (1–10) peptide (Vibrio cholerae, UniProt P0C6Q5 21-30)
TcpF (1–20) peptide = TcpF (1–20) peptide (Vibrio cholerae, UniProt P0C6Q5 21-40)
[1] = target: B1

Row | Binder | Kd (TcpF (1–10) peptide) | Kd (TcpF (1–20) peptide) | Kd [1]
1 | B1 | 506000 nM | 1700 nM | 
2 | FNDNYSSTSTVYATS [TcpF (1–15) peptide] |  |  | 3000 nM
